Measurements from patent US20120316071A1 (published 2012).
Each block holds one binder with its values, some of them ahead of it.

Experiments:
[1] = target: T1, rHuman Erythropoietin R/Fc Chimera, CF (R&D Systems Cat#963-ER) (human, UniProt P19235 25-250); experiment: MSD Multispot ECL, antigen spotted on plate, Fab 57.5 nM; blank spot 954
T1 construct: Bought reagent; also called EPO R/Fc; EPO R; Fc part of the bought chimera not given
T1 sequence (looked up): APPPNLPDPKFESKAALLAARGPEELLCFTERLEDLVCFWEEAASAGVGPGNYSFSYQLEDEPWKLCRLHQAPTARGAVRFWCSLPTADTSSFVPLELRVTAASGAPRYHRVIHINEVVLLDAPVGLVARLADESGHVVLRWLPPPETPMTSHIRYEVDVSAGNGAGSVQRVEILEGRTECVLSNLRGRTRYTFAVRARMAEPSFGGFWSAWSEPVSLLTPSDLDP

[2] = target: T2, Recombinant Human DLL4 (R&D Systems Cat#1506-D4/CF) (human, UniProt Q9NR61 27-529); experiment: as above
T2 construct: Bought recombinant protein; also called rHuman DLL4; delta-like protein 4

[3] = target: T3, rHuman IGF-1 sR, (IGF-1 sR), CF (R&D Systems Cat#391-GR) (human, UniProt P08069 31-932); experiment: as above
T3 construct: Bought soluble receptor; also called insulin-like growth factor-1 soluble receptor

[4] = target: T4, rHuman Notch-1/Fc Chimera, CF (R&D Systems Cat#3647-TK) (human, UniProt P46531 19-526); experiment: as above
T4 construct: Bought reagent; Fc part of the bought chimera not given

[5] = target: T1, rHuman Erythropoietin R/Fc Chimera, CF …; experiment: MSD Multispot ECL, antigen spotted on plate, Fab 230 nM; blank spot 1656
[6] = target: T2, Recombinant Human DLL4 (R&D Systems …); experiment: as above
[7] = target: T3, rHuman IGF-1 sR, (IGF-1 sR), CF (R&D …); experiment: as above
[8] = target: T4, rHuman Notch-1/Fc Chimera, CF (R&D …); experiment: as above
[9] = target: T1, rHuman Erythropoietin R/Fc Chimera, CF …; experiment: MSD Multispot ECL, antigen spotted on plate, Fab 14.375 nM; blank spot 738
[10] = target: T2, Recombinant Human DLL4 (R&D Systems …); experiment: as above
[11] = target: T3, rHuman IGF-1 sR, (IGF-1 sR), CF (R&D …); experiment: as above
[12] = target: T4, rHuman Notch-1/Fc Chimera, CF (R&D …); experiment: as above
[13] = target: T1, rHuman Erythropoietin R/Fc Chimera, CF …; experiment: MSD Multispot ECL, antigen spotted on plate, Fab 920 nM; blank spot 4082
[14] = target: T2, Recombinant Human DLL4 (R&D Systems …); experiment: as above
[15] = target: T3, rHuman IGF-1 sR, (IGF-1 sR), CF (R&D …); experiment: as above
[16] = target: T4, rHuman Notch-1/Fc Chimera, CF (R&D …); experiment: as above
[17] = target: T5, rHuman ErbB2/Fc Chimera, CF (R&D Systems Cat#1129-ER) (human, UniProt P04626 23-652); experiment: Multispot ECL (MSD), antigen spotted on plate, Fab 3.75 nM; blank spot 191
T5 construct: Bought recombinant protein; also called human epidermal growth factor 2 receptor; Fc part of the bought chimera not given

[18] = target: T6, rHuman CD44/Fc Chimera, CF (R&D Systems Cat#3660-CD) (human, UniProt P16070 21-220); experiment: as above
T6 construct: Bought recombinant protein; Fc part of the bought chimera not given

[19] = target: T7, rHuman IGF-1 sR, (IGF-1 sR), CF (R&D Systems Cat#391-GR) (human, UniProt P08069 31-932); experiment: as above
T7 construct: Bought soluble receptor; also called insulin-like growth factor-1 soluble receptor

[20] = target: T8, Recombinant Human DLL4 (R&D Systems Cat#1506-D4/CF) (human, UniProt Q9NR61 27-524); experiment: as above
T8 construct: it includes the signal peptide (amino acids 1-25), the transmembrane region and the cytoplasmic domain; also called delta-like protein 4; rHuman DLL4

[21] = target: T5, rHuman ErbB2/Fc Chimera, CF (R&D …); experiment: Multispot ECL (MSD), antigen spotted on plate, Fab 15 nM; blank spot 536
[22] = target: T6, rHuman CD44/Fc Chimera, CF (R&D Systems …); experiment: as above
[23] = target: T7, rHuman IGF-1 sR, (IGF-1 sR), CF (R&D …); experiment: as above
[24] = target: T8, Recombinant Human DLL4 (R&D Systems …); experiment: as above
[25] = target: T5, rHuman ErbB2/Fc Chimera, CF (R&D …); experiment: Multispot ECL (MSD), antigen spotted on plate, Fab 60 nM; blank spot 1433
[26] = target: T6, rHuman CD44/Fc Chimera, CF (R&D Systems …); experiment: as above
[27] = target: T7, rHuman IGF-1 sR, (IGF-1 sR), CF (R&D …); experiment: as above
[28] = target: T8, Recombinant Human DLL4 (R&D Systems …); experiment: as above
[29] = target: T5, rHuman ErbB2/Fc Chimera, CF (R&D …); experiment: Multispot ECL (MSD), antigen spotted on plate, Fab 0.9375 nM; blank spot 153
[30] = target: T6, rHuman CD44/Fc Chimera, CF (R&D Systems …); experiment: as above
[31] = target: T7, rHuman IGF-1 sR, (IGF-1 sR), CF (R&D …); experiment: as above
[32] = target: T8, Recombinant Human DLL4 (R&D Systems …); experiment: as above

ECL signal [1]: 4040 | ECL signal [2]: 144000 | ECL signal [3]: 2830 | ECL signal [4]: 5890 | ECL signal [5]: 6950 | ECL signal [6]: 119000 | ECL signal [7]: 4760 | ECL signal [8]: 9740 | ECL signal [9]: 2720 | ECL signal [10]: 125000 | ECL signal [11]: 1750 | ECL signal [12]: 4210 | ECL signal [13]: 16400 | ECL signal [14]: 73600 | ECL signal [15]: 10200 | ECL signal [16]: 20100
B1: Fab VH1-46_IGHD3-10*01_IGHJ4*01 & L12_IGKJ1*01 (Fab, V domains shown)
VH: QVQLVQSGAEVKKPGASVKVSCKASGYTFTSYYMHWVRQAPGQGLEWMGIINPSGGSTSYAQKFQGRVTMTRDTSTSTVYMELSSLRSEDTAVYYCAREYYYGSGSYYNDYFDYWGQGTLVTVSS
VL: not shown
notes: Tested as a Fab made in E. coli; VH was cloned into Plasmid A (CH1 with His6 and Flag tags) and the kappa VL into Plasmid C (kappa CL)

ECL signal [17]: 291 | ECL signal [18]: 307 | ECL signal [19]: 314 | ECL signal [20]: 1570 | ECL signal [21]: 740 | ECL signal [22]: 748 | ECL signal [23]: 859 | ECL signal [24]: 7730 | ECL signal [25]: 2160 | ECL signal [26]: 2360 | ECL signal [27]: 2670 | ECL signal [28]: 17300 | ECL signal [29]: 268 | ECL signal [30]: 251 | ECL signal [31]: 204 | ECL signal [32]: 453
B2: Fab VH1-3_IGHD4-23*01_IGHJ4*01 & L12_IGKJ1*01 (Fab, V domains shown)
VH: QVQLVQSGAEVKKPGASVKVSCKASGYTFTSYAMHWVRQAPGQRLEWMGWSNAGNGNTKYSQEFQGRVTITRDTSASTAYMELSSLRSEDMAVYYCARDDYGGNSDYFDYWGQGTLVTVSS
VL: not shown
